Experimental findings from patent US20220332848A1 (NANJING GENSCRIPT BIOTECH, published 2022) are described below.

This experiment has as its target T1, human CTLA-4 (human, UniProt P16410 36-223).
T1 construct: whole, on cells; also called CTLA-4 antigen; cytotoxic T lymphocyte-associated antigen 4
T1 sequence (looked up): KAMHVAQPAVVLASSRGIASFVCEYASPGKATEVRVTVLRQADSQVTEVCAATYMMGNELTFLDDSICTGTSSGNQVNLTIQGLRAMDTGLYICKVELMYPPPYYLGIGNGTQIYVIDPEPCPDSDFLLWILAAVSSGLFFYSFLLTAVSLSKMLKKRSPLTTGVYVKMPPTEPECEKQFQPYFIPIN
The experiment can be described thus: flow cytometry on CHO-K1 cells expressing CTLA-4. How it is done:
For the constructed series of bispecific antibodies, the affinity of these samples with antigens was measured by using a flow cytometer. […] Then, an antibody-antigen binding curve was generated based on the geometric mean, raw data of four parameters was plotted by using the […] Prism V6.02 software, and a best fitted value program was compiled to analyze EC₅₀.
Background: In flow cytometry, cells or beads pass a laser one at a time.

B1: bispecific antibody CTLA4-E-HN (bispecific antibody, human IgG4 S228P, kappa)
heavy: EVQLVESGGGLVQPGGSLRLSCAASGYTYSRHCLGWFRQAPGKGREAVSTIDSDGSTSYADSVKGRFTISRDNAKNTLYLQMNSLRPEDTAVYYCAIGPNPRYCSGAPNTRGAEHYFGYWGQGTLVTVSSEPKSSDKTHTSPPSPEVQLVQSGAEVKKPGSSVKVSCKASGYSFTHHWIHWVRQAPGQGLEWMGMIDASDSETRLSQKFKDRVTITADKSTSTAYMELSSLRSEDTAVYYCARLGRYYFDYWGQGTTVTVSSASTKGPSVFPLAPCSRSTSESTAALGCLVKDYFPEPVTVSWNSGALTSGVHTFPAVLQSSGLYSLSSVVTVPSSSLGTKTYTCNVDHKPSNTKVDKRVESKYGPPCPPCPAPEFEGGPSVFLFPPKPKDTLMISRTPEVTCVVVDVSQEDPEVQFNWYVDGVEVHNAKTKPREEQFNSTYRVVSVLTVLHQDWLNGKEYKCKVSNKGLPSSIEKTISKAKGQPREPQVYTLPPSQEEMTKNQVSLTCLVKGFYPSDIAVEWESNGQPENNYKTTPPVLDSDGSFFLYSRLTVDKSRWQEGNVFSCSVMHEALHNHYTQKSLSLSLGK
light: EIVLTQSPATLSLSPGERATLSCRASENVGTYISWYQQKPGQAPRLLIYGASNRYTGIPARFSGSGSGTDFTLTISSLEPEDFAVYYCGESYGHLYTFGGGTKVEIKRTVAAPSVFIFPPSDEQLKSGTASVVCLLNNFYPREAKVQWKVDNALQSGNSQESVTEQDSKDSTYSLSSTLTLSKADYEKHKVYACEVTHQGLSSPVTKSFNRGEC
notes: also called H2 + L0
Regarding B1, the binding result is on record as “binds”.

B2: bispecific antibody CTLA4-G15-HN (bispecific antibody, human IgG4 S228P, kappa)
heavy: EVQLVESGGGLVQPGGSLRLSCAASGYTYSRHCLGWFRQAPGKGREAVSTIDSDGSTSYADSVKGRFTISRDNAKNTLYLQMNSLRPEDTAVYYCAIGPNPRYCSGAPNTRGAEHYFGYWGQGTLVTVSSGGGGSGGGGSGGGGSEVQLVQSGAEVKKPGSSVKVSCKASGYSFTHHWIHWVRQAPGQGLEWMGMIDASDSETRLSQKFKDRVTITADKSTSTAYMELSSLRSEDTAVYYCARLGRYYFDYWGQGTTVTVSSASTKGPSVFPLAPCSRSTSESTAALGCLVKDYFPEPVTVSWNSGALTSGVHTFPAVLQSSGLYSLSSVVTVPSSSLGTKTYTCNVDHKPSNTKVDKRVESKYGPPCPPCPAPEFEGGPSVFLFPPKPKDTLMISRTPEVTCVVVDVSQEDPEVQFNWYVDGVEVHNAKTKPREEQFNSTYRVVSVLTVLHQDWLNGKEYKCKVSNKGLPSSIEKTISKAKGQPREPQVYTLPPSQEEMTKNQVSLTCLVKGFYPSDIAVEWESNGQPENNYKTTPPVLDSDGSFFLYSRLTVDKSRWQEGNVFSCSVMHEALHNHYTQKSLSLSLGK
light: B1 light
notes: also called H4 + L0
As for B2, the binding result was “binds”.

B3: bispecific antibody CTLA4-G15-HC (bispecific antibody, human IgG4 S228P, kappa)
heavy: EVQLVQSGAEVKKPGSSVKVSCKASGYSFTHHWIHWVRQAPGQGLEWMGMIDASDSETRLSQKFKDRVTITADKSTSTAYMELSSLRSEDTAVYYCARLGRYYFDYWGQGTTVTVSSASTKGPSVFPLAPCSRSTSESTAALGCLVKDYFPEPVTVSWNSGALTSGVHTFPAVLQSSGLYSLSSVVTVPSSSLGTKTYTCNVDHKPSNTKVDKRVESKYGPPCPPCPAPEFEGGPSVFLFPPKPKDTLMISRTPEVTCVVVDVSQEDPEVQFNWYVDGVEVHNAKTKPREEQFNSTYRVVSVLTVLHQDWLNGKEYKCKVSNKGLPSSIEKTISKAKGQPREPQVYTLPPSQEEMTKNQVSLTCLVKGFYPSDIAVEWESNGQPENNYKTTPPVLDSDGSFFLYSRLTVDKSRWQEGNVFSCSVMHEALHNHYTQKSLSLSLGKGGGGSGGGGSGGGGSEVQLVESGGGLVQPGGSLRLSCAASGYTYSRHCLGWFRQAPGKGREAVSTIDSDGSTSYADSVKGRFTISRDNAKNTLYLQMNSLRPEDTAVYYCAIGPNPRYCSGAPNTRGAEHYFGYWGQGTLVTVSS
light: B1 light
notes: also called H3 + L0
Turning to B3, the binding result is listed as “binds”.

B4: bispecific antibody CTLA4-E-HC (bispecific antibody, human IgG4 S228P, kappa)
heavy: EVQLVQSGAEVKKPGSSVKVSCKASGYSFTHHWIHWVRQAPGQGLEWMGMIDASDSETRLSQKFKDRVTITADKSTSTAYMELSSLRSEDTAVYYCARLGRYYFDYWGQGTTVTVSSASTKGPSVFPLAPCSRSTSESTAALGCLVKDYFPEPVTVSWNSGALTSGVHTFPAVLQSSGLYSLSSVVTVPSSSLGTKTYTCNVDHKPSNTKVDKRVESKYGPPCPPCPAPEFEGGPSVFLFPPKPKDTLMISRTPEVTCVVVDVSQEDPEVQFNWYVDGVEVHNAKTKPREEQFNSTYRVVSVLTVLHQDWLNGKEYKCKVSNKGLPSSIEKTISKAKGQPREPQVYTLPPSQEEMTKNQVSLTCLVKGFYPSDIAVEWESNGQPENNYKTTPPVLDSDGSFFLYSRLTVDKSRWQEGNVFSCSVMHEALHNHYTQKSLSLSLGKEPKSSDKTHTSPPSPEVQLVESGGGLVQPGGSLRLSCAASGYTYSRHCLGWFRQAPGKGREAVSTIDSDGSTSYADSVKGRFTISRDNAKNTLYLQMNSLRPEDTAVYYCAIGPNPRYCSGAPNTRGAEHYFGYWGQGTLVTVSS
light: B1 light
notes: also called H1 + L0
In the case of B4, the binding result is reported as “binds”.

B5: bispecific antibody CTLA4-G9-LN (bispecific antibody, human IgG4 S228P, kappa)
light: EVQLVESGGGLVQPGGSLRLSCAASGYTYSRHCLGWFRQAPGKGREAVSTIDSDGSTSYADSVKGRFTISRDNAKNTLYLQMNSLRPEDTAVYYCAIGPNPRYCSGAPNTRGAEHYFGYWGQGTLVTVSSGGGGSGGGSEIVLTQSPATLSLSPGERATLSCRASENVGTYISWYQQKPGQAPRLLIYGASNRYTGIPARFSGSGSGTDFTLTISSLEPEDFAVYYCGESYGHLYTFGGGTKVEIKRTVAAPSVFIFPPSDEQLKSGTASVVCLLNNFYPREAKVQWKVDNALQSGNSQESVTEQDSKDSTYSLSSTLTLSKADYEKHKVYACEVTHQGLSSPVTKSFNRGEC
heavy: not shown
notes: also called L2 + H0
With B5, the binding result is recorded as “binds”.

B6: bispecific antibody CTLA4-G15-LN (bispecific antibody, human IgG4 S228P, kappa)
light: EVQLVESGGGLVQPGGSLRLSCAASGYTYSRHCLGWFRQAPGKGREAVSTIDSDGSTSYADSVKGRFTISRDNAKNTLYLQMNSLRPEDTAVYYCAIGPNPRYCSGAPNTRGAEHYFGYWGQGTLVTVSSGGGGSGGGGSGGGGSEIVLTQSPATLSLSPGERATLSCRASENVGTYISWYQQKPGQAPRLLIYGASNRYTGIPARFSGSGSGTDFTLTISSLEPEDFAVYYCGESYGHLYTFGGGTKVEIKRTVAAPSVFIFPPSDEQLKSGTASVVCLLNNFYPREAKVQWKVDNALQSGNSQESVTEQDSKDSTYSLSSTLTLSKADYEKHKVYACEVTHQGLSSPVTKSFNRGEC
heavy: not shown
notes: also called L1 + H0
On to B6, for which the binding result is recorded as “binds”.
